This is an account of results in the DeepSol protein solubility set.

This series is described as follows: soluble on expression in E. coli; label from the status in PepcDB or PDB records.
As for “MTGDHIKVIYFNGRGRAESIRMTLVAAGVNYEDERISFQDWPKIKPTIPGGRLPAVKITDNHGHVKWMVESLAIARYMAKKHHMMGGTEEEYYNVEKLIGQAEDLEHEYYKTLMKPEEEKQKIIKEILNGKVPVLLDIICESLKASTGKLAVGDKVTLADLVLIAVIDHVTDLDKEFLTGKYPEIHKHRENLLASSPRLAKYLSDRAATPF”, the “soluble on expression in E. coli” value is “soluble”.
For “GSSCGNDESDPDSTVTIAMATVEKQPQYDAPYLVLDNGEKLWVVQHIVPYRDLKAGERIFGNYSFLEAGESGFAYNIRLNDYTLVPVQKIIGLNPDNMDSIGNMKVQIKDMWPSDDYLNVRFMLNFPSPQKPILNLVVNEMIPWTKDGYAHLELRYNNNGSQGRLVPGMVSFKLDDYSPENSELKGIKVLVNPVDGEEKTYIFSYPLTGEDVPGFNPLDLAELK” the value was “soluble”; for “MQELYLLGVVPSRRFEAVVNSLSKTLDGPKTILEFWVVYRPKDVPPNLPRQPDSWLRLCSNIESHDETDTEWSKNTQWSMYLEGNSEPKREDKCGIRPVNRAKLTNGSVTEFVEKMGYEFSHEYIIQGLEYFFFDTTVRIYQTLIPSQQRSIKPPFHPMNEEQPWILHVYTHVADASNQVAMAKAEANLTKVKTLLSAFCDLKNVRL”, “soluble”; for “MGSDKIHHHHHHMDGGFMQKKVLLVGLGVMGSRIAANFASAGKLAGVYDRNVDKAKNTASMLKVGFYRDLGEAVKNSDIIVTMLYDDRSVKEVYSQMEQGVQGKVFIDMSTISPDTSIEIAKRIKEKGGKMYDAPVIGTSIAVEKKALVVLVGGDLSGYDEVRDLISATANQVVYMGDNGSGLYAKLVNNLFLGSYMASLAEAVRFGRKNGIPDSTISDVLTKYSSARSPTSDLKVPKMISEDYSVQFSIKNMLKDMEIVDRMASEKRIALPVASLALQLFRYLMDSGYGEEDIAAIYRALR”, “not soluble”.
The result for “MKIYLMRHTSVLFNGNEHCYGFTDVDVRDTFEEEAAAACARLKGLDPEAVFTSPLQRAAKLAAFCGYPDAIRDDRLKEMNFGDWEGKPWEEILDTTDIEAFFRRYIDEPVSGGESQREQFERVRDFILEKKAAGYRSILIFCHGGVINCARTLVGQCTLESAFASLPPFGSLTELIL” reads “not soluble”; that for “MSLDVSYSFTPLTGYKDSLVNQHVKLPLNYPTIDNHNPKKSTTPNNEFHKKIATTGKIINLPKQSIVPAVSISVYNDMKTIVLTPMEFQLSSIGFQFQNLIIDLPHSTISTNCITFYYHQDHILIDLIDQNYLFITLKIAIDRFILGGQQLTLDNFEEWGYISVPYSFELRSSPFLLKCLDNLNLIVSLKDGGLLHFKRDEELGEINVFNFQEQGTLIPFLGFFGSGKQKDVVLDGVSSNSIVDALQIGGSGVVITLSVNKVLKLWNLDGHQNLSSLTIASDDNTWLPTIPSKYLKSYDQEDGKTIITLFINTKSGDSSKSMFVFKSFELESSNLHDLSDLSFQPELPNSLLFSSDVFYHESNFQNTIWFIQDYEVVGFGTSQLKYYILWKSNTSSILVEYTINPVNGAILSIEISHPNGFEIDENISAYHDAEYYMDRIFDSGNYDSLIVLTSIKILSQHWEIDNEGHHHHHH”, “soluble”; that for “MVVCSVQRLLLNFDFSENRSRSYHFTMDGKQIATTIPPVFLFNVLESVSGTDDRVLEHHHHHH”, “not soluble”.
For “MLKGKYTKIEKVNGVEREYLITDKYGITIGRIFIVDLNKDNRFCMFRMKIYKQGKSINTYIKEILSVFMEFLFKSNDINKVNIIVDEEVSTQPFVELGFAFEGIINKSIIEKNVLKDEFLFGMDYKNYNSDRINVFKLYGKSITLKVLTPEDAENMLQYYIKNKEHLKPFEPEREESFYTFEAQKQMLIENYKQFINGEGTNFGIYKDAKLIGKIQISGTIYGVFKSAIIGYSIDKDYQGKGYMKDALRVAEAYAFNVMNLHRIEASALVDNLRSQNVLIGCGFEKLGINKNYLFINGRWQDHITFYKTNNN” the value was “not soluble”; for “MSVTKLNNGKWQARVSYKDDDGNYKSVTHLEKRKTDAVEWETKTKNALLEGADLSRSTESLKHYFLDWIRIYKTDGVSRHTHELYMGNWRHIAAYFKDRPMSAIKRPDYQKFLNEFGRSHGIATSHKLHQQVHTAIKDAVADGILKRDFAYKAHVTGRPPKPVEEKYLTLSDYKKLRKYLIKTADYDHMTMLMMLFQLETGTRFEEAAGLTWDNLDLNNGIVHIKQQWDARRQTFRPTKGNGQADGDITIGPAYCRFMRSYRSTQKDYLELHEMKNPKNLVFWSKLGKIVGNGNANEELGRICNRLKINKVTTHAMRHTHASILILNHESLPYVQHRLRHQKLETTVNTYVHLIEEENGVSDKKATELMDEGF”, “not soluble”; for “MSDDIFRLATVEDASELLKLVNSAFQPIRQLDIDWPSTRADIQMVSENIEHHSAIVLERDGKLISTITIRFPWESETPPSKYPFVWWFATLPEYKGQGAGSKLLTYVEEKVLRDMLKAPALTLGTSARKHPWLADMYRRRGYEVYFEQEKDGDIGVMMHKVLIPERFNPTLLGAPSWA”, “soluble”.
Turning to “MHHHHHHSSGVDLGTENLYFQSNAMSSKIFCKSWGAEYIAADVVRFRLWATGQQKVMLRLAGKDQEMQANGDGWFTLDVAGVTPGTEYNFVLSDGMVVPDPASRAQKTDVNGPSYVVDPGSYTWRNTGWKGSRWEQAVVYEMHTGTFTPEGTFRAAIAKLPYLAELGVTVIEVMPVAQFGGERGWGYDGVLLYAPHSAYGTPDDFKAFIDAAHGYGLSVVLDIVLNHFGPEGNYLPLLAPAFFHKERMTPWGNGIAYDVDAVRRYIIEAPLYWLTEYHLDGLRFDAIDQIEDSSARHVLVEIAQRIREDITDRPIHLTTEDSRNIISLHPRDQDGNAPLFTAEWNDDFHNAVHVFATGETQAYYNDFADAPEKHLARALAEGFAYQGEISPQTGEPRGVKSTGQPPVAFVDFIQNHDQVGNRAQGDRLITLAGAERTKVLLATLLLSPHIPLLFMGEEYGESRPFLFFTDFHGDLARAVREGRAKEFADHAGENVPDPNAPETFQRSKLNWKQQHSEEGKAWLAFTRELLLLRQKHIVPLLSAARESSGTVLQTAPGFIAVSWRFPGGTLSLALNISATTVLLPDLPGKTLFAWPNESTGSLSQHSLIVRLAQGESAS”, the “soluble on expression in E. coli” value is recorded as “soluble”.
As for “MEPKDTTTNDAFKGFTNTACPFLPCHKGVKREFNCLFCYCPLIAYECPGPYQVYTDKNGLTRKDCTNCTLPHDGYLASWNFIQKWLERPVIWSGAAQTTPPTRRPGRAPGDGDEELEHHHHHH”, the “soluble on expression in E. coli” value was “soluble”.
In the case of “MSLTERRQATAIVRAHGHTSLARLTLLEDKSYCFSPSGESLIAFVQRGRGAIALGDPIGPARDREAIIQQFLRECQQNDWLPAFYQVLPDDLPLYQRQGLASDQIGQEAVIPLQDFSLQGKRGRGFRSTLSRLERAGYRFEVIPAAEIYPLLPELRFVSDTWLKRMKGPEKRFSVGWFDRDYLTSGSIAVVRSQDGQIQAFANWVEEFQRNELTLDLIRFLPSAESSTMEFLLVNTILAAKDRGFDSFSLGLSALSGLDQLDQPNQVEQGLDYLYRHLDRFYRFQGLHSFKEKFHPDWQPRYFVYPNLAAIPSLVVTLVRADSGDRWLDYFRANDEGHHHHHH”, the “soluble on expression in E. coli” value is given as “not soluble”.
For “MKPESHCVYLELSAEREHKFYEVTVEGAELTIRYGRIGTEGQTQRKSFADSAGAQAEAEKKLVEKRKKGYGDAVRGQTEKKAVEQPRLKLPRKFEPYRERIEATLRPVLLLEVLEEEPGPLGSKVGGVPYRVQGEAWPTDTEGRPLTFLAQLNFADLPPLEGYPENGILQFFIGRDDLYGCDFMRPEEGNPASFEVRWSPEPQMDLSQLDVETPDFDDDGFSPLETLRGFGLRGQQVEQPMSWCDCHFEQAIGLDLCDNSEGPEGRALGEWRQEKYDELATYGHQVGGYPSFTQEDPRTADDPRILLFQLDSEAGKITWGDVGIANFFIDPDDLARWDFSRVAYNWDCTLEHHHHHH” the value was “soluble”.
Regarding “MSLQSKTAKLPDNDRNRPLIQTFNDAQQKVWFDDALLHEDPSQCCNPEFWQQNGKVLGSATGRGTTWFVQLQQTQGALRHYRRGGLFGKLVADSYWFTGWEKTRSYQEFMLLNHLRDAGVNVPRPIAARVQKHGLLYKADLLSEKVPNARDLVSILQESPISDELYRKIGREIRKMHDAQVNHTDLNIHNILIDDQEKVWIIDFDKCYVQIGDSWKQGNLKRLKRSFEKEVCKRGINWSLEAFAIISSYKHEEEGHHHHHH”, the “soluble on expression in E. coli” value was “soluble”.
In the case of “MSLPFITKISTQKKNTERFNIFLDDKYAFSVDADVLVKFELKKGKELDDLDIIEIQYGDEVKKGFNRALDFLSYRMRSTKEVEDHLKKKETSPPVIAEVIHRLNDYKYLNDQEFAAAYVSTHKKTNGKGPDVLFRELRAKGIDDDTIKEALSSFSFEDQTREAVKHVEKLLKKDKKLSTKELKQRAQLQLQRKGFSFDVISAAMDQIEYENDEDTEKEALRLHAEKAFRKYRYDGSYESAMKVKQFLFRKGFSLDLIEQLLQEEEYEGHHHHHH”, the “soluble on expression in E. coli” value was “soluble”.
For “MALKKHNVFVFSSNYTLYGDMSQRVMNTLAEFTPEIEVYSIDESFLNFEGFELLGDLKIYGTTIRNTVFRNTGIPVSIGIAPTKALAKLSNRIAKKNKEYNHVCVLEHHHHHH”, the “soluble on expression in E. coli” value is “not soluble”.
Take “MRMNIRVALPQAQVHWCRGWLQAAHADALMQALLDQVQWEVHRIRMFGRVVDSPRLSSWIGDADASYRYSGTQFAPQPWLEALQPVRTRLQDETGSPFNSVLVNRYRSGADAMGWHSDDEPELGAQPVIASLSLGAARRFAFKHRHDAALKQTLELGHGDLLLMGGDTQRHYKHALPRTVKPVGERINLTFRQIAVRVSQRLEHHHHHH”: the “soluble on expression in E. coli” value is given as “not soluble”.
In the case of “MKKEIIVYTISDSLGETSQKLLAAASAQYPDISFLNRYNFSFVTTEEELLEILKDALKDKALVVSTLVSKQLITAAKEFSERTGLLYLDLMAPFFELIQAKAGVDPIEEPGRRHQLDRAYFDKISAIEFAVKYDDGKNPQGFLDSDILLLGVSRTSKTPVSMYLANQGYRVSNLPLIPEVPLPPILEEMDPQKMIGLVCSPETLGQIRSSRLASLGLGNETSYTNVERIEQELAYAEEIFAKYGIPVIDVTAKSVEETAFLIKEKLDERNLEHHHHHH”, the “soluble on expression in E. coli” value is given as “soluble”.
The result for “MVRYFGFLANRVCGEKLPQVYRALGMDKPEPVAKVCYAQMVKQFLSRDPFECVLCGGRMVYRRAIAGLNVEGLKKNARDISLLRYMPA” reads “not soluble”; that for “SQRGVLEDEQMYQRCCNLFEKFFPSSSYRRPVGISSMVEAMVSRARIDARIDFESGRIKKEEFTEIMKICSTIEELRRQK”, “soluble”; that for “MGSDKIHHHHHHLQVSEMEMLITLSEELNMRRAAERLFVSQPALSQRLVAIERRWATKLFIRSSRGLSITPQGEKVIGLAKEMNRKELELKSELTAEEGAVYGTLRIAVASIMGQYWLPRVLKRFVERYPHVRVQLVTGWSSEMMRHMLEEHFHIGIIRGNPDWKGVKERLFSDPLYLVDSELTSLEQLRKTERPFIQFKSDSTYYQEILEWWQDRFSSPPARTLVVDQIETCKQMALHGIGFAILPESTIHEASEVMQIPLKTSSGKILKRDTWILSTESMLELKQVQAFWDIVKEEGGSQSDGIRN”, “not soluble”.
Regarding “KRIVLGVGGGIAAYKSAELVRRLRDQGAEVRVVMTQGGREFITPLTLQALSGHPVHTDLLDPAAEAAMGHIELARWADLVLIAPATADLMARLVQGVANDLLTTLVLATDAQIALAPAMNQAMWRDTATQANAELLRQRGFHLFGPAAGSQACGDVGLGRMLEAEELAQRAADCFQRQALTGVHVLITAGPTQENIDPVRYITNHSSGKMGFALAEAAVEAGARVTLVTGPVHLPTPDRVQRVDVVSARDMLAACEAAMPCDLLIASAAVADYRPEVVAAHKLKKDPTSGEGLLLQLVRNPDILATLAQREDRPFSVGFAAETENLLDYAARKLKDKNLDLIVANDVANPSIGFNSDENAITVIDRDLHPSTFAQTSKGKIARQLVAFIAD”, the “soluble on expression in E. coli” value was “not soluble”.
